The target of this assay is RadD of F. nucleatum subsp. nucleatum ATCC 23726 (Fusobacterium nucleatum subsp. nucleatum ATCC 23726 (endogenous)). Briefly: flow cytometry on cells. A general note: Flow cytometry measures light scatter and fluorescence of single cells or particles in a stream.

The substance “human Siglec-7-Ig (from UniProt Q9Y286 19-353) (Fc fusion)” gave a percent reduction of binding with 5 mM arginine of 31%.

For the origin of these results see article PMC11215305.
